Measurements as given in the DeepSol protein solubility set.

Assay: soluble on expression in E. coli; label from the status in PepcDB or PDB records

Soluble on expression in E. coli, not soluble:
MGSDKIHHHHHHMNQATRNVLWMTGIKKSFSGVPALWGVDFELKAGEIHALVGENGAGKSTLIKIMTGAYRRDSGVMEYDQKTVAFENPIQAQAAGIVAVYQEIQLVGLRTVAENIFLSREPNRFGIIDRRAMNARAADILKRLGLHIDPHSVVGSLNIAHRQMVAIARAISFGARVLILDEPTSSLTKTEVSVLFDVMRRLKSEGTSIVYISHRFEELYTVCDRVTVLRDGRNIVTRSLSMLTRLELVCFMLGRKPEEVSKRVTAFARQSQNMLGQPVLLQAEALKYKKRLNGVSIEVQHGEIVGLAGLLGSGRSETVRALFGAEPLEGGTVKLEGSLLSLRDPHDAIDAGIAFLSEDRKADGIIPELSVRENLTLAALPNLTQWGIVSKKRQSELALRFMERLDIKAASIEQKIRFYTNSGCNYDSSDRGSFLLYPLYAFRPSYRCSRRQRGGCTACGYPCGAREIYSLYN
MGSDKIHHHHHHMNRTAVGVDIAKSVFQVHYVDPETGEIVNKPIKRAKFLEFFANRARCLIGMEACGGAQHWARQLMKMGHEIRLMPAEFVKAFNIRNKNDAADARAIWLAVQQPGKPVAVKTEMQQAMLALHRMRRQLVTFRTMQINGLRGLPTEYGEVMGRGRAALDKAIPEVLRRVAERLPAVVIDTLREQWNGLTKLDEQVACIERRMREWKKQDKAVQAISEIPGVGLLTATAAVAMMGDAKAFSSGREFAAWAGLVPKQTGSGGKVNLHGISRRGDTYLRTLLIHGARSVLTHAKDPGPWVEQMKKRRPLNVVVVALANKIARTIWAGTFLRYSYNFP
MGSDKIHHHHHHMNRVILFHFHFFKNAGSAVDYILEKNFGDRFVKKEFKLWPYYENIKEVIKWIENESDAVAFSSHTARLFDSTLLERRGIKIIPIIFVRHPIIRIHSAYHYERKQVDIFRPGPVIARNTDFKGYVEIRLAIPRQEFNVSNFHVFRLADMLHGEKNMKPLEKALIALKRLPFIGLVEEFEKSMTKLEETVREYFPEFKASVIRTNVQFSPDMPLEERLKIIKNEVGKDFYKKLMEINEEDMVLWEKVVDMYKEGF
MGSDKIHHHHHHMNSSLQVGIGIDVGSSSARIGVYNYYNDALLEMAQEPVPYYQDSSKKSWKFWQKSTEIIKALQKCLQKLNIREYEVKSCGVSATCSLAIFERDRTSNMLIPYPNEDNVIFWMDSSAVNECQWLNMQCPQQLLDYLGGKFVPEMGVPKLKYFLDEYSHLRDKHFHIFDLHQYIAYELSRLYEWNIEGLLGRENLNGIGNDGEVSGWSSSFYKNIINLPSNVSIGTTSLVANKHISTTVVRSCIDSYASWFAVASPHLETSLFMIAGTSSCYMYGTTISDTRIPGVWGPFDTILDNRGDFSVYAAGQSCTGKLIEHLFESHPCARKILKDGADIYQVLEQTIRDIEKNNGLSIHILTKDMFFYGDYEGNRTPFADPRIKGSFIGESTDTSMLNLTYKYICILEFLSFQTKLIIDTFQNENSNIHIKELRISGSQAKNERLLSLISLVNNGVAIIKPKENVDMMGIKGAYVLAKSAKEKKQLADVITERDISNDSEKFESLAEYRLGNDSILLRKLLCVKYHIHLDMAKQQKRYHKLVDEVFQHL
MGSDKIHHHHHHMNSTTKSKEFEQHYSGTLSDYVTAIAWSPQGKTLAATSAAGEVVLWNDGELTTLQTGNGKSVDCLAFSPDGKFLAVGGQDGQVKIWQNTELIATLENAPAWVDKLAWNYTSNQLAFSLGRYVQVWDVDTHEIVVTLNFDNSSVLGIDWRIDGQYLAISGYKGVKIWHSQNWDEEPYSLDMTTVSLAMAWSPDGKFLASGNMDRSVTVLEWNNPDPWVMRGFPGKIRQLAWSEAMTKVGAPILASSSVEGIVVWEKLEDDTLGWEARVLTNHVGTINAIAFAPKSFLLASAAADGWLCLWNQAKEVSQIITGVSGGFSTLAWHPQGKLLAAGGEQGELVIWSKVLRGQGFGRS
MGSDKIHHHHHHMNTADNVVEMRSISKGFNGVSVLKDVSFDVRKGEVHALAGGNGAGKSTLMKILQGVYQADAGEILIGGKPVAINSIQDAKSAGIGMVFQEFSLVPSLTVAQNIFLAAEPLGAGGLIDDRASERRAKEIFAEMEVKVDPRAEVSRLGTAYWQLTEIAKALSQNAQVLIMDEPTASLARHESEALFELIDRLKQRGISIIYISHRMDEVYRLADRITILRDGRRLLTEPLTGVTPEQIVEGIVGKKIEGQLAYRERDQVAHDSAPLLEVRGLNAGPRVRDISFSLRPGEILGLAGLMGSGRTELARALFGIDRRDSGEIFIRGERINLTSPQQAITAGVALIPEDRRAQGLVLEHSVQDNLLLPLLGQIQRGPFLDGARGKELSSSLIKRFAVKVAHPHRPVRLLSGGNQQKVVIAKWLGTDPDILILDEPTAGVDIGTKSEILDMIRELASAGKAVIVISSEYPELLAVSDRVLVLKDGSIIRDIPRSEIADEEYLQLAVQGV
MGSDKIHHHHHHMNTIGERLKYLRKLNNLTQKQVAEKTGVQRGNISHYEKNDFLPSRVALISFANFFKTNYDWIVYGKGAIPKSIDEVMYAKSNSIAECNNGAAVDFSKRLIFTMKYFHETIDGLCLKLNISKDIFHEILIKKNVSAFDLFKICNYFNVSMDWMFNGNITYLKSDAKLQQAYLMNSKGNKPLSYDNHGMVQCTCEEKKLLIFFENLNTKDKSLVIDILNSVNNQASMDIQKLIK
MGSDKIHHHHHHMNTLASIQELARAIRNMIRTGIVVETDLDAGRCRVQTGGIYTDWLQWLTHRAGRSRTWWAPSIGEQVMILAVGGELDTAFVLPGIYSDDNPAPSASADAWHVEFPDGAVMSYEPETGALTVTGIKTADVTASDSVAVSVPVVLVKAETRVTLDTPEVVCTNKLTTGTLEVKQGGKMSGDIEHSGGAFTSNGVQVDKHGHGGIRRGDEWTEGTQ
MGSDKIHHHHHHMNVTDLPQACISLIENVPGIDFIDEDFAIFDNIDDIPSLDHPMRIDAVVFALCTKGFMRIRINMEEYVVGENHLVLSLPDQIIQHVERSEDVAGIFIVISKNFMEEIIPHIQNTLPAFFYIKEHPVTELNAEEIGCIKEYHSFLWKKVKAKRHPYRKEIAQSLLLAVFHEVYGMFKNHMPIEVKKSRQEELFAAFIQTLALHHKQERSVAFYAGKLCVTPKYLSLLVKNVSNRTAGEWIDNYVVLEAKALLSSSTLSIQEISDRLNFTNQSFFGKYFKQHVGISPTEYRKKW
MGSDKIHHHHHHMNWGKYATYSEDFFEKLTSESNQLDLYIFVQYLLHYQLSEAVDYCHQLGIALKGDIAIGIAHDSVDAWTHPELFHLDKQAGAPPDIFAVNGQNWGFPTYNWKKMAEDGYAWWKKRLTAMSNYFDAYRLDHILGFFRIWQMPEDSVRGLLGQFSPAIALSAEEIENSYGIPLRQWGLERFINPFIKDWVIDEIFGRDNRDWIIQTFLDYIGNGNYTFQNEYNNQKKVEKAQLEDWVREGLYKLHENIILLKDDENPEKYHPRISLIQTISFREFGDDYKGRLEKLYNDYFYGRNYEFWKEKAYEKLPVLKDATNMLACGEDLGMVPANVPDVMNHLNILRLIIERMPSDNRFVSPLNEVPYLSVLTTSSHDTSPLRAWWEENHEEIQRYYNEVMGWYGEAPYYASAEIIQEIVKRHLNSNAMMVILPIQDWLAMSEQLRKEDAKSEQINIPANPYHYWNYRLHCQLETLIDNQDWTEFLKKFIKESKRAY
MGSDKIHHHHHHMNWWLDPRIFEADNSELAMVLHPEWLNRRDVETIICDGSVRAGKTLIMSMSYVLWSMTNYNEEQFGIAGKTIGSLRRNVIRPLMRMLRGRGYEVKDKRADNLLVISHNGVTNYYYLFGGKDEGSQDLVQGITVAGFFFDEVALMPESFVNQATARASVDGAKFWFNCNPAGPYHWFKLEWLDQLDQHKAIHIHFTMKDNPSLSPETIDRYERMYTGVFYQRFILGQWVLSDGIIYDNFDKNKMVVKNPQGTARKYAVSIDYGTLNPTVFLMWGLYGDTWHLTKMYYYDGRHKHKQKTDEEYSAELDRFEDGLNPVEIIDPSAASFITLRRRGGHHVIKADNDVLDGIRKTGMAMNTGKIVFSPDLADLFKEFASYVWDEKAAEHGEDKPVKQHDHAMDAMRYFVMYMIGRQPTIQTFKLG
